Measurements as given in paper PMC6794372.

How the values were obtained:
[1] = target: PRA, recombinant C-terminal domain of MYH9, His-SUMO tag removed; assay: non-reducing SDS-PAGE and Western blot; PRA (5 mM) alone or pre-incubated with S100A4 (10 mM, 3 mM CaCl2) at 4°C for 1 h; without DTT; blot with anti-MYH9 pAb
[2] = target: PRA, recombinant C-terminal domain of MYH9, His-SUMO tag removed; assay: negative-stain electron microscopy; purified PRA (5 mM) for 1 h at 4°C in 50 mM Tris, 150 mM NaCl, 10% glycerol, 3 mM CaCl2; supernatant after centrifugation, 1% uranyl acetate

Which results are given for “PRA, recombinant C-terminal domain of MYH9, His-SUMO tag removed (domain or fragment)”?
stoichiometry N [1]: 2; stoichiometry N [2]: 2
